Results reported in the supplement of paper PMC10567573.

B1: CDC14A (parent)
chain: LWVQGDIFRSKLKNRPSSEGSINK
B2: CCDC70 (parent)
chain: FSFKVSRWMGLACFRSLAASSPSI

Variants of: B1
Experiment: protein stability index of a GFP-peptide fusion (GPS, HEK-293T) (PSI 1-6); higher = more stable
Conditions: c terminus: a fixed tail appended
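Further: lentivirally expressed fusions sorted by FACS into six bins by GFP to DsRed ratio, PSI derived from sequencing read proportions per bin multiplied by bin number.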

Protein stability index, by site and new letter:
E19: Q 2.49, R 2.35, S 2.29, T 1.88, V 2.17, W 1.88, Y 1.58
G20: A 2.06, C 2.82, D 2.64, E 3.9, F 2.3, H 2.74, I 2.61, K 3.44, L 2.69, M 2.73, N 2.76, P 2.04, Q 2.61, R 2.76, S 2.58, T 2.85, V 2.23, W 2.03
S21: A 2.77, C 2.64, D 4.21, E 3.65, F 2.46, G 2.84, H 2.41, I 2.08, K 2.42, L 2.24, M 2.15, N 2.18, P 3.06, Q 3.15, R 1.73, T 3.13, V 2.41, W 2.42, Y 2.22
I22: A 3.1, C 2.59, D 3.2, E 2.97, F 2.51, G 3.21, H 3.32, K 2.06, L 2.79, M 3.02, N 3.05, P 2.63, Q 2.71, R 3.2, S 3.88, T 3.39, V 2.81, W 2.33, Y 2.85
N23: A 2.08, C 2.17, D 2.8, E 2.89, F 1.45, G 3.05, H 2.65, I 2.15, K 2.69, L 2.1, M 2.15, P 3.06, Q 2.31, R 2.4, S 2.96, T 3.06, W 2.8, Y 1.91
K24: A 2.31, C 1.93, D 2.79, E 2.73, F 1.75, G 2.26, H 2.06, I 1.8, L 1.91, M 2.08, N 2.79, P 2.46, Q 2.41, R 2.52, S 2.37, T 2.83, V 1.63, W 2.47, Y 1.73

Variants of: B2
Experiment: as above
Conditions: c terminus: a fixed tail appended

Protein stability index, by site and new letter:
F1: A 2.36, C 2.38, D 1.25, E 3.1, G 2.57, I 1.68, K 2.46, L 4.16, M 4.47, N 2.35, P 2.2, Q 2.12, R 2.08, S 1.38, T 2.53, W 2.34, Y 2.33
S2: A 1.82, C 3.54, D 2.19, F 3.87, G 1.56, H 1.33, I 3.26, K 2.59, M 2.1, N 2.32, P 2.37, Q 3.39, R 1.49, T 2.69, V 1.84, Y 2.62
F3: A 3.33, C 2.74, D 1.63, E 2.21, H 1.87, I 2.92, K 1.39, L 4.25, N 2.5, P 2.57, Q 1.92, R 3.02, S 2.6, T 1.83, V 1.38, W 1.82
K4: A 2.38, C 3.35, D 3.56, E 1.92, G 2.99, H 2.73, I 3.39, L 3.31, M 2.34, N 2.51, P 1.65, R 2.22, S 3.25, T 2.38, V 3.11, W 4.77, Y 3.24
V5: A 3.24, C 2.92, D 1.73, E 1.29, F 2.74, G 2.54, H 2, I 1.72, K 2.28, L 2.22, M 2.01, N 2.78, P 2.21, Q 3.04, R 3.55, T 2.77, W 2.13, Y 2.98
S6: A 2.99, C 2.82, D 2.35, E 3.26, F 1.69, G 2.88, I 2.7, K 2.24, L 2.29, M 2.17, N 3.31, P 2.51, Q 3.43, R 2.09, T 2.43, V 4.41, W 3.02, Y 2.88
R7: A 2.22, C 3.09, D 2.9, E 3.4, F 2.69, G 1.65, H 3.25, I 4.23, K 2.3, M 2.33, N 2.53, Q 2.19, S 2.14, V 3.67, W 3.02, Y 2.52
W8: A 1.12, C 2.07, D 1.76, E 1.29, F 4.12, G 3.55, H 2.82, I 2.9, K 2.29, L 3.27, M 1.77, P 2.4, Q 3.47, R 1.81, S 2.08, T 2.58, V 3.21, Y 3.02
M9: A 2.28, C 3.07, D 4.03, E 2.5, F 2.95, H 2.8, I 4.43, K 2.21, L 4.57, N 2.15, P 1.36, Y 3.2
G10: A 3.75, C 1.55, D 3.79, E 3.35, F 1.86, K 3.17, M 4.54, N 3.79, P 4.98, R 2.37, S 2.98, V 2.36, W 3.9, Y 4.12
L11: A 3.24, D 2.84, E 1.76, F 3.35, G 3.16, H 5.37, I 3.88, M 3.73, N 2.65, P 2.72, R 4.02, S 3.51, T 3.12, Y 3.04
A12: C 3.26, D 2.87, E 2.75, F 2.57, H 1.57, I 3.43, K 3.62, L 2, M 3.25, P 2.56, Q 3.81, R 1.49, S 2.02, V 1.98, Y 2.87
C13: D 2.05, F 3.96, G 2.27, H 2.36, I 2.56, K 1.46, L 3.57, P 1.82, R 3.4, S 2.66, T 1.63, V 2.52, W 2.35, Y 3.24
F14: A 3.51, D 2.84, G 3.57, I 1.54, K 1.93, L 2, M 2.21, N 2.56, P 3.6, Q 1.72, R 4.52, S 1.61, T 1.31, V 3.5, W 1.7
R15: A 3.76, D 2.71, E 3.26, H 3.52, I 2.04, L 3.13, M 3.86, Q 5.05, S 1.7, T 2.79, V 3.28, W 4.5, Y 2.87
S16: A 3.04
